Measurements as given in patent US7790673 (NEW YORK UNIVERSITY, dated 2010).

How the values were obtained:
[1] = biological target: T1, Aβ1-40 synthetic peptide (UniProt P05067 672-711); test: ELISA, Aβ1-40-coated wells, 0-37.5 nM cystatin C
T1 construct: domain: Aβ1-40; Coated on microtiter wells, freshly dissolved; also called Aβ40
Experimental: (§1) Two different batches of each peptide were used in the experiments. Wild type and variant cystatin C, purified from conditioned media as described above, were compared to urinary cystatin C (Calbiochem Biosciences). Polystyrene microtiter plates (Immunolon 2; Dynex Technology) were coated for 16 hours at 4° C. with freshly dissolved Aβ peptides (400 ng in 100 µl of NaHCO_3 $pH$ 9.6 per well). After blocking with 200 µl Superblock (Pierce), increasing concentrations of either wild type, variant or urinary cystatin C (0-37.5 nM) in 100 µl TBS-T (20 mM Tris-HCl, 150 mM NaCl pH 7.4, containing 0.1% Tween-20) were added to the Aβ-coated wells and incubated for 3 hours at 37° C. Bound cystatin C was detected with 100 µl polyclonal anti-cystatin C antibody (1:600) followed by 100 µl horseradish peroxidase-conjugated F(ab')2 anti-rabbit IgG (1:4000, Amersham) and developed using 100 µl 3,3',5,5'-tetramethyl-benzidine as substrate; Absorbency was read at 450 nm after stopping the reaction with 100 µl 2.5N sulfuric acid. Non-linear regression analysis, estimation of dissociation constants and comparison of protein binding data were assessed for statistical significance with GraphPad Prism software (GraphPad, San Diego, Calif., USA). P values were calculated by one-way ANOVA of three independent repeated measures of duplicate samples. […]

[2] = biological target: T2, full-length βAPP (βAPP751 cDNA, in HEK293 cells) (UniProt P05067-8 18-751, limits assumed); test: immunoprecipitation of HEK293 cell lysate proteins with anti-cystatin C antibody, immunoblot with 22C11
T2 construct: whole, on cells; Tested by co-immunoprecipitation from cell lysates, not on intact cells; also called β amyloid precursor protein; cell associated full-length βAPP
Experimental: Media was replaced 16 hours after transient transfection, harvested 24 hours later, and spun at 4,500×g for 10 minutes at 4° C. Cells were harvested in RIPA buffer (1% NP-40, 0.5% cholic acid, 0.1% SDS; 150 mM NaCl, 10 mM Tris-HCl, pH 8.0) with protease inhibitors (7.5 μg/ml Aprotinin; 5 μg/ml leupeptin; 2 mM PMSF) and centrifuged for 5 minutes at 10,000 rpm at 4° C. Cellular and secreted proteins were immunoprecipitated with either polyclonal antibodies and Protein A Sepharose (Pharmacia Biotech) for 4 hours at 4° C. or with monoclonal antibodies overnight at 4° C. and with GammaBind Plus Sepharose beads (Pharmacia Biotech) for 2 hours at 4° C.
The interaction of cystatin C with βAPP was examined in HEK293 cells stably expressing either wild type or variant cystatin C genes, and transiently transfected with either wild type βAPP or vector cDNAs. […] The data indicates binding between cystatin C and cell associated full-length as well as sβAPP.

[3] = biological target: T3, Aβ1-42 synthetic peptide (UniProt P05067 672-713); test: ELISA, Aβ1-42-coated wells, 0-37.5 nM cystatin C
T3 construct: domain: Aβ1-42; Coated on microtiter wells, freshly dissolved; Also used in the fibril and oligomerization assays; also called Aβ42
Experimental: as §1

Measured: binding result

B1: variant human cystatin C (L68Q, HCHWA-I variant) (other, UniProt P01034 27-146, looked up)
chain: SSPGKPPRLVGGPMDASVEEEGVRRALDFAVGEYNKASNDMYHSRALQVVRARKQIVAGVNYFLDVEQGRTTCTKTQPNLDNCPFHDQPHLKRKAFCSFQIYAVPWQGTMTLSKSTCQDA
notes: mature; Position 68 counts on the mature protein, not on the precursor with signal peptide; also called cystatin C-V; CysC-V
binds: all assays above
